In patent US20050282743A1, “Molecular interactions in cells” (Arbor Vita Corporation, priority 2001, published 2005):
Ends that are not written are not given here. Peptide text beside a SMILES is read from it. * marks the point of attachment. Biotin = O=C1N[C@H]2[C@H](CS[C@H]2CCCCC(=O)*)N1

Columns and labels:
Assay in all cases: G' assay (10 uM PL peptide), results of TABLE 7 and TABLE 12
Assay type in all cases: binding
[1] = biological target: T1, PDZ protein (GST-PDZ fusion) (Homo sapiens, UniProt O75970)
T1 construct: made in house; host or cells: E. coli (DH5alpha, BL21 or JM109)
In short: (§1)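 Binding classes derive from A450 nm of bound biotin-tagged PL peptide. A score of 5 needs A450 above 4 in more than two repeats.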

[2] = biological target: T2, PDZ protein (GST-PDZ fusion) (Homo sapiens, UniProt Q96JH8); settings: PDZ FLJ 10324, PDZ Domain 1
T2 construct: made in house; host or cells: E. coli (DH5alpha, BL21 or JM109)
T2 sequence (Q96JH8 1-1075): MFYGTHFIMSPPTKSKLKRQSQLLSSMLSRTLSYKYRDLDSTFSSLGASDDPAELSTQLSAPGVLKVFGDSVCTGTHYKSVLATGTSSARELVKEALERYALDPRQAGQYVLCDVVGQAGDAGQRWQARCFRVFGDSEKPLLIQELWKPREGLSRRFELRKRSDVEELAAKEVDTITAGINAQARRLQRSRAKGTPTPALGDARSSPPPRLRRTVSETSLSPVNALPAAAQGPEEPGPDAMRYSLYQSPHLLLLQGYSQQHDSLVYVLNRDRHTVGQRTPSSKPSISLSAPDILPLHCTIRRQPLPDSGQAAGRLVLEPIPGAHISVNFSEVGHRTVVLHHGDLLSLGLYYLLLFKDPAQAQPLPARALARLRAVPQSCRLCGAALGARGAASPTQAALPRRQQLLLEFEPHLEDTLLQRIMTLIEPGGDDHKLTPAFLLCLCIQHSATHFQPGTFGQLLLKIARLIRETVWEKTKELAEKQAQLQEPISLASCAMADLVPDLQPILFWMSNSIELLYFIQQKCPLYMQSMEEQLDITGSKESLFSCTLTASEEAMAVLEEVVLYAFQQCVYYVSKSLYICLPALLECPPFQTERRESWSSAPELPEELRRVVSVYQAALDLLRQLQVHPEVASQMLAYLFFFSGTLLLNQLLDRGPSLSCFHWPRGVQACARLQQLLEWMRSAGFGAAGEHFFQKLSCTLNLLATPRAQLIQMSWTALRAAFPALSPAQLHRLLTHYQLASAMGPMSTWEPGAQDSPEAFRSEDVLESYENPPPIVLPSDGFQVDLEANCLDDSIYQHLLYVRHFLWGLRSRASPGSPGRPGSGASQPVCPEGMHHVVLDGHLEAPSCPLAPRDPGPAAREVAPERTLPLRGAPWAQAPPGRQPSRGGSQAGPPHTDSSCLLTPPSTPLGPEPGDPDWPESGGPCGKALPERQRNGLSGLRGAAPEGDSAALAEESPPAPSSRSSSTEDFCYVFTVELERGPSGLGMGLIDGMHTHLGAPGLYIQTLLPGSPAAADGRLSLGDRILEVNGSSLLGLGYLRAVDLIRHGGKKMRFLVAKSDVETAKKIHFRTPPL
In short: as §1

[3] = biological target: T3, PDZ protein (GST-PDZ fusion) (Homo sapiens, UniProt Q02410)
T3 construct: made in house; host or cells: E. coli (DH5alpha, BL21 or JM109)
T3 sequence (Q02410 1-837): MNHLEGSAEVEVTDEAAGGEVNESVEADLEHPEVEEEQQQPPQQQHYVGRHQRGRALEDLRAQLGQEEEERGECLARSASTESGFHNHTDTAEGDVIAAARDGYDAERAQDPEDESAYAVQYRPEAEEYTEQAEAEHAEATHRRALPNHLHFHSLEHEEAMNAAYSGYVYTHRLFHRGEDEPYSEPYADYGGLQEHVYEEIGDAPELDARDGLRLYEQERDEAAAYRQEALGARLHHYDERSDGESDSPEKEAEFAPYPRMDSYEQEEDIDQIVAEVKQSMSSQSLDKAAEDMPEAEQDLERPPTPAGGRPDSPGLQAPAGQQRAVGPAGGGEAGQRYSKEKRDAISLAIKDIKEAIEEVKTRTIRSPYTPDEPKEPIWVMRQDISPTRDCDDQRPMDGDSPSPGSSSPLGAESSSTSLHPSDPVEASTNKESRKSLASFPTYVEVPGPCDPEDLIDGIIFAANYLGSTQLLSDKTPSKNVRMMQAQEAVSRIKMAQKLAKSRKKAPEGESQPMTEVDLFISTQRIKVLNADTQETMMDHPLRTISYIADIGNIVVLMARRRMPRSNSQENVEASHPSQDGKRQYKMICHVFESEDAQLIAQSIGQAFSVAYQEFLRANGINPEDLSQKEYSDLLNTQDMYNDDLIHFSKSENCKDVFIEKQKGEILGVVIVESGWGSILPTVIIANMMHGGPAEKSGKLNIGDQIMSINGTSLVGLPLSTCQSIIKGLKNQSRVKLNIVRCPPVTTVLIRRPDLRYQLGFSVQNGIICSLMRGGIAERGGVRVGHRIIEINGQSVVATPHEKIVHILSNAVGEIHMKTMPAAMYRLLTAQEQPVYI
In short: as §1

T1 sequence (O75970 whole entry, the tested form may be a part): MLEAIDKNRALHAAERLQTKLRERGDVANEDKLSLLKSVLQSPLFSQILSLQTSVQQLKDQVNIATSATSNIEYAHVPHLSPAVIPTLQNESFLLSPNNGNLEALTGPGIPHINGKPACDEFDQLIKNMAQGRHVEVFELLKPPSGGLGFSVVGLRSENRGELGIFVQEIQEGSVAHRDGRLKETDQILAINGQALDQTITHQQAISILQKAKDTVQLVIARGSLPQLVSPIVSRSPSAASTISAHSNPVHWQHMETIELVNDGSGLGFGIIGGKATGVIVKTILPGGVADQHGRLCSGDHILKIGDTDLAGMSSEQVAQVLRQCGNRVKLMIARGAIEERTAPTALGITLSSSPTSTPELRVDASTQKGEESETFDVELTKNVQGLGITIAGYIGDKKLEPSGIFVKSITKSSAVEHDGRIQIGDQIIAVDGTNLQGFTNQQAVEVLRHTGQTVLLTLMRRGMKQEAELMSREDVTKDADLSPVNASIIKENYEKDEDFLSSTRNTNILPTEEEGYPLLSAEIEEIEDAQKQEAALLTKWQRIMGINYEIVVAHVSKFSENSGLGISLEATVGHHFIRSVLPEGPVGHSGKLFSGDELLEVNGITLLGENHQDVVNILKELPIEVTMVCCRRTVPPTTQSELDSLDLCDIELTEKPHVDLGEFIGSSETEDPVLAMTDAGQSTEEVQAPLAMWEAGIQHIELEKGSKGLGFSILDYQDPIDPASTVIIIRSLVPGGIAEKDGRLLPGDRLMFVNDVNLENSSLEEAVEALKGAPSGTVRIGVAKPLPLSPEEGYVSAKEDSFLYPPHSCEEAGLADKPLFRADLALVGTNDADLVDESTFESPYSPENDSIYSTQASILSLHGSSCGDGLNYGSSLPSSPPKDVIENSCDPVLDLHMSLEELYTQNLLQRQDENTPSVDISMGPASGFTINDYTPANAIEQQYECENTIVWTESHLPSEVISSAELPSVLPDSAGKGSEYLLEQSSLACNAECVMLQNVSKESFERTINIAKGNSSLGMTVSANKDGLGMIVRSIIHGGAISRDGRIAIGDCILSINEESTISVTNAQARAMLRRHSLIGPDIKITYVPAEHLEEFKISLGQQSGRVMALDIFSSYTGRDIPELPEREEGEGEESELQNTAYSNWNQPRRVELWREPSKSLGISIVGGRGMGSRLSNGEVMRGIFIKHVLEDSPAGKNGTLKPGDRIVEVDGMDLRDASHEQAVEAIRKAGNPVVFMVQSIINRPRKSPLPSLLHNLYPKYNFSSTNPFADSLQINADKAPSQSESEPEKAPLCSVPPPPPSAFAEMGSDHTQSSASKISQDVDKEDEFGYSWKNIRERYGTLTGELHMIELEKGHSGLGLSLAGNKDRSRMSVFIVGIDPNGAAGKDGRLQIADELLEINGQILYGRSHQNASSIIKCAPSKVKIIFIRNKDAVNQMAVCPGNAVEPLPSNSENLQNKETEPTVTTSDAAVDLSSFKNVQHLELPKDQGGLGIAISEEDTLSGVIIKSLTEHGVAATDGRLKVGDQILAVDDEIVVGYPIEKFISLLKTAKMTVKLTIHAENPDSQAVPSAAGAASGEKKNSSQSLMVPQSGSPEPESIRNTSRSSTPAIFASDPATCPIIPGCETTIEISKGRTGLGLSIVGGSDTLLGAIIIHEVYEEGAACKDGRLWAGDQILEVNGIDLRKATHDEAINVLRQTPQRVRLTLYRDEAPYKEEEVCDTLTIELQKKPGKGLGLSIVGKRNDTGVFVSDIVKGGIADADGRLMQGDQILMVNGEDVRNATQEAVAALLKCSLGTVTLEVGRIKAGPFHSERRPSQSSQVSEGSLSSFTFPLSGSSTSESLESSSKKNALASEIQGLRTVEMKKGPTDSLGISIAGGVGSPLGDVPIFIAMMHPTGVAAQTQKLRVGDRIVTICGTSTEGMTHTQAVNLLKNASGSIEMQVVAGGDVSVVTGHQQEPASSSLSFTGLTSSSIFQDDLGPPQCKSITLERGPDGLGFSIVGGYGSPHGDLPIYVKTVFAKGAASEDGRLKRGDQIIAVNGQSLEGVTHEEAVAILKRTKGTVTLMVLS

| Classification [2] | Classification ([3]; PDZ Mint 1, PDZ Domain 2) | Classification ([1]; PDZ MUPP-1, PDZ Domain 2) | Classification ([1]; PDZ MUPP-1, PDZ Domain 3) | Classification ([1]; PDZ MUPP-1, PDZ Domain 7) | Classification ([1]; PDZ MUPP-1, PDZ Domain 9) | Classification ([1]; PDZ MUPP-1, PDZ Domain 11) | Classification ([3]; PDZ Mint 1, PDZ Domain 1) | Classification ([1]; PDZ MUPP-1, PDZ Domain 1) | Classification ([1]; PDZ MUPP-1, PDZ Domain 8) | Classification ([1]; PDZ MUPP-1, PDZ Domain 12) | Classification ([1]; PDZ MUPP-1, PDZ Domain 6) | Molecule | Classification ([1]; PDZ MUPP-1, PDZ Domain 5) | Classification ([1]; PDZ MUPP-1, PDZ Domain 10) | Classification ([1]; PDZ MUPP-1, PDZ Domain 13) | Classification ([3]; PDZ Mint 1, PDZ Domain 1, 2) |
| --- | --- | --- | --- | --- | --- | --- | --- | --- | --- | --- | --- | --- | --- | --- | --- | --- |
| 4 (A450 nm 3-4) | 1 (A450 nm 0-1) | 1 (A450 nm 0-1) | 1 (A450 nm 0-1) | 1 (A450 nm 0-1) | 1 (A450 nm 0-1) | 5 (A450 nm of 4 more than 2× repeated) | 2 (A450 nm 1-2) |  |  |  |  | KTMPAAMFRLLTGQETPLYI (Biotin-KTMPAAMFRLLTGQETPLYI) [MINT-2] |  |  |  | 5 (A450 nm of 4 more than 2× repeated) |
| 5 (A450 nm of 4 more than 2× repeated) | 5 (A450 nm of 4 more than 2× repeated) | 5 (A450 nm of 4 more than 2× repeated) |  |  |  | 5 (A450 nm of 4 more than 2× repeated) | 2 (A450 nm 1-2) | 2 (A450 nm 1-2) | 2 (A450 nm 1-2) | 1 (A450 nm 0-1) |  | ELLQFCRTPNPALKNGQYWV (Biotin-ELLQFCRTPNPALKNGQYWV) | 5 (A450 nm of 4 more than 2× repeated) | 4 (A450 nm 3-4) |  | 5 (A450 nm of 4 more than 2× repeated) |
| 1 (A450 nm 0-1) |  |  |  |  |  |  | 1 (A450 nm 0-1) |  | 1 (A450 nm 0-1) |  | 2 (A450 nm 1-2) | A2AA_HUMAN (modified) (Biotin-HDFRRAFKKILARGDRKRIV; not fully specified) |  |  | 1 (A450 nm 0-1) |  |
| 5 (A450 nm of 4 more than 2× repeated) |  |  | 3 (A450 nm 2-3) | 2 (A450 nm 1-2) | 3 (A450 nm 2-3) |  |  |  |  |  |  | CC[C@H](C)[C@H](NC(=O)[C@H](Cc1ccc(O)cc1)NC(=O)[C@H](CC(C)C)NC(=O)[C@H](CCC(N)=O)NC(=O)[C@H](Cc1c[nH]cn1)NC(=O)[C@H](CO)NC(=O)[C@H](C)NC(=O)[C@H](CC(C)C)NC(=O)[C@@H](NC(=O)[C@H](CC(=O)O)NC(=O)[C@H](CCSC)NC(=O)[C@H](Cc1ccccc1)NC(=O)[C@@H]1CCCN1C(=O)[C@H](CCCNC(=N)N)NC(=O)[C@@H](NC(=O)[C@H](CC(C)C)NC(=O)[C@H](CC(N)=O)NC(=O)[C@H](CC(=O)O)NC(=O)[C@@H](NC(=O)[C@H](CO)NC(=O)CCCC[C@@H]1SC[C@@H]2NC(=O)N[C@@H]21)[C@@H](C)O)C(C)C)[C@@H](C)O)C(=O)O [presenilin-2] (Biotin-STDNLVRPFMDTLASHQLYI-OH; C-terminus assumed) |  |  |  | 3 (A450 nm 2-3) |
| 1 (A450 nm 0-1) | 1 (A450 nm 0-1) |  |  |  |  |  |  |  |  |  |  | PPATPSPRLALPAHHNATRL (Biotin-PPATPSPRLALPAHHNATRL) [Na+/Pi cotransporter 2] |  | 1 (A450 nm 0-1) | 1 (A450 nm 0-1) |  |

| Molecule | Classification [2] | Classification ([3]; PDZ Mint 1, PDZ Domain 2) | Classification ([1]; PDZ MUPP-1, PDZ Domain 2) | Classification ([1]; PDZ MUPP-1, PDZ Domain 3) | Classification ([1]; PDZ MUPP-1, PDZ Domain 7) | Classification ([1]; PDZ MUPP-1, PDZ Domain 9) | Classification ([1]; PDZ MUPP-1, PDZ Domain 11) | Classification ([3]; PDZ Mint 1, PDZ Domain 1) | Classification ([1]; PDZ MUPP-1, PDZ Domain 1) | Classification ([1]; PDZ MUPP-1, PDZ Domain 8) | Classification ([1]; PDZ MUPP-1, PDZ Domain 12) | Classification ([1]; PDZ MUPP-1, PDZ Domain 6) | Classification ([1]; PDZ MUPP-1, PDZ Domain 5) | Classification ([1]; PDZ MUPP-1, PDZ Domain 10) | Classification ([1]; PDZ MUPP-1, PDZ Domain 13) | Classification ([3]; PDZ Mint 1, PDZ Domain 1, 2) |
| --- | --- | --- | --- | --- | --- | --- | --- | --- | --- | --- | --- | --- | --- | --- | --- | --- |
| CSCC[C@H](NC(=O)[C@H](C)NC(=O)[C@H](CCCNC(=N)N)NC(=O)CNC(=O)[C@@H](NC(=O)[C@H](Cc1c[nH]c2ccccc12)NC(=O)[C@H](CCCNC(=N)N)NC(=O)CNC(=O)CCCC[C@@H]1SC[C@@H]2NC(=O)N[C@@H]21)[C@@H](C)O)C(=O)N[C@@H](CO)C(=O)N[C@@H](C)C(=O)N[C@@H](Cc1c[nH]c2ccccc12)C(=O)N[C@@H](CCCCN)C(=O)N1CCC[C@H]1C(=O)N[C@H](C(=O)N[C@@H](CCCNC(=N)N)C(=O)N[C@@H](CCCNC(=N)N)C(=O)N[C@@H](CCC(=O)O)C(=O)N[C@H](C(=O)N[C@@H](CCC(=O)O)C(=O)N[C@H](C(=O)O)C(C)C)[C@@H](C)O)[C@@H](C)O [HPV E6 #35 (modified)] (Biotin-GRWTGRAMSAWKPTRRETEV-OH; C-terminus assumed) | 1 (A450 nm 0-1) | 2 (A450 nm 1-2) |  |  |  |  |  |  |  |  |  |  | 2 (A450 nm 1-2) | 4 (A450 nm 3-4) | 5 (A450 nm of 4 more than 2× repeated) | 1 (A450 nm 0-1) |
| CC[C@H](C)[C@H](NC(=O)[C@H](CCC(N)=O)NC(=O)[C@@H](NC(=O)[C@H](Cc1c[nH]cn1)NC(=O)[C@H](CCC(N)=O)NC(=O)[C@H](CC(=O)O)NC(=O)[C@H](CCC(=O)O)NC(=O)[C@H](CC(=O)O)NC(=O)[C@H](Cc1ccccc1)NC(=O)[C@@H]1CCCN1C(=O)[C@H](CCC(=O)O)NC(=O)[C@H](CC(N)=O)NC(=O)[C@H](CCC(=O)O)NC(=O)[C@@H]1CCCN1C(=O)[C@H](CC(=O)O)NC(=O)[C@H](CO)NC(=O)[C@H](CC(=O)O)NC(=O)CCCC[C@@H]1SC[C@@H]2NC(=O)N[C@@H]21)[C@@H](C)O)C(=O)N[C@H](C(=O)N[C@@H](CCCCN)C(=O)N[C@H](C(=O)O)C(C)C)[C@@H](C)O [PTEN] | 1 (A450 nm 0-1) | 1 (A450 nm 0-1) |  |  |  |  |  |  |  |  |  |  |  |  | 5 (A450 nm of 4 more than 2× repeated) | 1 (A450 nm 0-1) |
| CC[C@H](C)[C@H](NC(=O)[C@H](C)NC(=O)[C@H](CC(C)C)NC(=O)[C@H](Cc1c[nH]c2ccccc12)NC(=O)[C@H](Cc1c[nH]cn1)NC(=O)[C@H](CCC(N)=O)NC(=O)[C@H](CC(C)C)NC(=O)[C@H](CCC(N)=O)NC(=O)[C@H](Cc1ccccc1)NC(=O)[C@H](CCC(N)=O)NC(=O)[C@H](CCCNC(=N)N)NC(=O)[C@@H](NC(=O)[C@H](CC(=O)O)NC(=O)[C@H](CCCNC(=N)N)NC(=O)[C@H](CCC(N)=O)NC(=O)[C@H](C)NC(=O)[C@@H](NC(=O)[C@H](CC(C)C)NC(=O)[C@H](Cc1c[nH]cn1)NC(=O)[C@H](Cc1c[nH]cn1)NC(=O)CCCC[C@@H]1SC[C@@H]2NC(=O)N[C@@H]21)C(C)C)[C@@H](C)CC)C(=O)O [noradrenaline transporter] (Biotin-HHLVAQRDIRQFQLQHWLAI-OH; C-terminus assumed) | 3 (A450 nm 2-3) |  |  | 4 (A450 nm 3-4) | 3 (A450 nm 2-3) | 3 (A450 nm 2-3) |  |  |  |  |  |  |  |  |  | 3 (A450 nm 2-3) |
| ISGTPTSTMVHGMTSSSSVV (Biotin-ISGTPTSTMVHGMTSSSSVV) [Clasp-2] | 1 (A450 nm 0-1) |  |  |  |  |  |  |  |  |  |  |  |  | 1 (A450 nm 0-1) | 1 (A450 nm 0-1) | 1 (A450 nm 0-1) |
